Assay results: patent US20040253247A1 (Genentech, published 2004)
Bridges are numbered along the chain shown (N, C = ends). Where no end group is shown, it is not given here. code n = not defined here

B1: phage clone EQADCAWHLGELVWCTPMVF (peptide)
peptide: EQADCAWHLGELVWCTPMVF
notes: M13/gIII phage display; Secondary Optimization
B2: phage clone WVDCAYHLGELVWCSTFEE (peptide)
peptide: WVDCAYHLGELVWCSTFEE
notes: M13/gIII phage display; Secondary Optimization; printed with 19 residues
B3: phage clone RVADCAWHMGELVWCSELEV (peptide)
peptide: RVADCAWHMGELVWCSELEV
notes: as for B1
B4: phage clone KEADCAWHMGELVWCSEMEG (peptide)
peptide: KEADCAWHMGELVWCSEMEG
notes: as for B1
B5: phage clone KEASCAWHLGELVWCSEVEE (peptide)
peptide: KEASCAWHLGELVWCSEVEE
notes: as for B1
B6: phage clone EVEDCAYHLGELVWCSDLEG (peptide)
peptide: EVEDCAYHLGELVWCSDLEG
notes: as for B1
B7: phage clone GEADCSYHLGELVWCNDFEE (peptide)
peptide: GEADCSYHLGELVWCNDFEE
notes: as for B1
B8: phage clone WVEDCSWHMGELVWCDGGEF (peptide)
peptide: WVEDCSWHMGELVWCDGGEF
notes: M13/gIII phage display; Focused Libraries
B9: phage clone WEEDCAWHLGELVWCAEFDE (peptide)
peptide: WEEDCAWHLGELVWCAEFDE
notes: as for B1
B10: phage clone READCAWHLGELVWCSERDL (peptide)
peptide: READCAWHLGELVWCSERDL
notes: as for B1
B11: phage clone EVADCSWHLGELVWCTEGEF (peptide)
peptide: EVADCSWHLGELVWCTEGEF
notes: as for B1
B12: phage clone GVRNCAYHLGELVWCTPMEF (peptide)
peptide: GVRNCAYHLGELVWCTPMEF
notes: as for B1
B13: phage clone GEEDCSYHLGELVMCTELDD (peptide)
peptide: GEEDCSYHLGELVMCTELDD
notes: as for B1
B14: phage clone RVEDCAYHLGELVWCTEGDE (peptide)
peptide: RVEDCAYHLGELVWCTEGDE
notes: as for B1
B15: phage clone GEPDCAWHLGELVWCTPMVF (peptide)
peptide: GEPDCAWHLGELVWCTPMVF
notes: as for B1
B16: phage clone WVEDCAWHMGELVWCTKVDE (peptide)
peptide: WVEDCAWHMGELVWCTKVDE
notes: as for B1
B17: phage clone GEEDCAWHLGELVWCTDVED (peptide)
peptide: GEEDCAWHLGELVWCTDVED
notes: as for B1
B18: phage clone GEQDCSYHMGELVWCTTVDG (peptide)
peptide: GEQDCSYHMGELVWCTTVDG
notes: as for B1
B19: phage clone EEASCAYHLGELVWCDAFDV (peptide)
peptide: EEASCAYHLGELVWCDAFDV
notes: as for B1
B20: phage clone GEEDCAWHLGELVWCSGGDF (peptide)
peptide: GEEDCAWHLGELVWCSGGDF
notes: as for B1
B21: phage clone GEASCAYHLGELVWCDEGEG (peptide)
peptide: GEASCAYHLGELVWCDEGEG
notes: as for B1
B22: phage clone KVADCAWHMGELVWCTEVEG (peptide)
peptide: KVADCAWHMGELVWCTEVEG
notes: as for B1
B23: phage clone EEPDCSWHLGELVMCTPMEV (peptide)
peptide: EEPDCSWHLGELVMCTPMEV
notes: as for B1
B24: phage clone EEPDCSWHLGELVWCTPIEV (peptide)
peptide: EEPDCSWHLGELVWCTPIEV
notes: as for B1
B25: phage clone AEADCAWHLGELVWCTKVEE (peptide)
peptide: AEADCAWHLGELVWCTKVEE
notes: M13/gIII phage display; ALA Scan on Phage
B26: phage clone WEADCAWHLGELVWCTKVAE (peptide)
peptide: WEADCAWHLGELVWCTKVAE
notes: as for B25
B27: phage clone WEPDCAWHLGELVWCTKVEE (peptide)
peptide: WEPDCAWHLGELVWCTKVEE
notes: as for B25
B28: phage clone WEADCAWHLGELAWCTKVEE (peptide)
peptide: WEADCAWHLGELAWCTKVEE
notes: as for B25
B29: phage clone WEADCAWHLGALVWCTKVEE (peptide)
peptide: WEADCAWHLGALVWCTKVEE
notes: as for B25
B30: phage clone WEADCAWHLGELVWCAKVEE (peptide)
peptide: WEADCAWHLGELVWCAKVEE
notes: as for B25
B31: phage clone WEADCAWHLGELVACTKVEE (peptide)
peptide: WEADCAWHLGELVACTKVEE
notes: as for B25
B32: phage clone WEAACSWHLGELVWCTKVEE (peptide)
peptide: WEAACSWHLGELVWCTKVEE
notes: as for B25
B33: phage clone WEADCAWHLGELVWCTAVEE (peptide)
peptide: WEADCAWHLGELVWCTAVEE
notes: as for B25
B34: phage clone WEADCAWALGELVWCTKVEE (peptide)
peptide: WEADCAWALGELVWCTKVEE
notes: as for B25
B35: phage clone WEAACAWHLGELVWCTKVEE (peptide)
peptide: WEAACAWHLGELVWCTKVEE
notes: as for B25
B36: phage clone WEADCAWHLGELVWCTKAEE (peptide)
peptide: WEADCAWHLGELVWCTKAEE
notes: as for B25
B37: phage clone WEADCAWHAGELVWCTKVEE (peptide)
peptide: WEADCAWHAGELVWCTKVEE
notes: as for B25
B38: phage clone WAADCAWHLGELVWCTKVEE (peptide)
peptide: WAADCAWHLGELVWCTKVEE
notes: as for B25
B39: phage clone WEADCAWHLAELVWCTKVEE (peptide)
peptide: WEADCAWHLAELVWCTKVEE
notes: as for B25
B40: phage clone WEADCAWHLGEAVWCTKVEE (peptide)
peptide: WEADCAWHLGEAVWCTKVEE
notes: as for B25
B41: phage clone WEADCAAHLGELVWCTKVEE (peptide)
peptide: WEADCAAHLGELVWCTKVEE
notes: as for B25
B42: RB-R8 (peptide)
peptide: QGLIGDICLPRWGCLWGDSV
modifications: not fully specified (bridges); printed as Gln-Gly-Leu-Ile-Gly-Asp-Ile-Cys-Leu-Pro-Arg-Trp-Gly-Cys-Leu-Trp-Gly-Asp-Ser-Val; cysteine pairing not given here
notes: phage clone, Library RB
B43: SA05 (peptide)
peptide: MEDICLPRWGCLWED-{code n}
modifications: disulfide 5-11 (inferred); reading uncertain; also: printed as Met-Glu-Asp-Ile-Cys-Leu-Pro-Arg-Trp-Gly-Cys-Leu-Trp-Glu-Asp
notes: synthesized peptide
B44: SA04 (peptide)
peptide: DICLPRWGCLW-{code n}
modifications: disulfide 3-9 (inferred); reading uncertain; also: printed as Asp-Ile-Cys-Leu-Pro-Arg-Trp-Gly-Cys-Leu-Trp
notes: synthesized peptide

Target: T1, rat albumin (rat, UniProt P02770 25-608)
T1 sequence (P02770 25-608 limits assumed): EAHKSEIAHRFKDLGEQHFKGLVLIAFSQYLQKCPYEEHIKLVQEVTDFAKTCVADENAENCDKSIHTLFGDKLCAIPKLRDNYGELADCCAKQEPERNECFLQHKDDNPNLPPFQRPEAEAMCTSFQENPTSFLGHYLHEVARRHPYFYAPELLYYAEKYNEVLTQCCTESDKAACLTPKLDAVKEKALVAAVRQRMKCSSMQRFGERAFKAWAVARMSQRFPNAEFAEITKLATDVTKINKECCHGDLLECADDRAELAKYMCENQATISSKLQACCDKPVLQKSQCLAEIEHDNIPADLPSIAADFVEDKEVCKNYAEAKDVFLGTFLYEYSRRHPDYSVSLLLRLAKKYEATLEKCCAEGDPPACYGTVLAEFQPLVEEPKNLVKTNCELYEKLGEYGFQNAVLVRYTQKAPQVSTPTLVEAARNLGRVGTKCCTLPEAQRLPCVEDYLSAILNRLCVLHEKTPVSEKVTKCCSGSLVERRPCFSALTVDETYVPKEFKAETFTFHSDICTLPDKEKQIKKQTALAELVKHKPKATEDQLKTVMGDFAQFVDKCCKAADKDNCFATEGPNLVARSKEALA
Assay: phage ELISA
Description: (§1) Phage ELISA—Phage clones (˜10¹¹ phage) were added to plates coated with rat, rabbit or human albumin. The microtiter plate was washed with wash buffer and bound phage were detected with HRP/Anti-M13 Conjugate. The amount of HRP bound was measured using ABTS/H₂O₂ substrate and monitoring the change at 405 nm.

Does DSEVCYFPGICWSGT (phage clone, Library HBC) [HBC-H1] bind?
Result: no binding

Target: T2, rabbit albumin (rabbit, UniProt P49065 25-608)
T2 sequence (P49065 25-608 limits assumed): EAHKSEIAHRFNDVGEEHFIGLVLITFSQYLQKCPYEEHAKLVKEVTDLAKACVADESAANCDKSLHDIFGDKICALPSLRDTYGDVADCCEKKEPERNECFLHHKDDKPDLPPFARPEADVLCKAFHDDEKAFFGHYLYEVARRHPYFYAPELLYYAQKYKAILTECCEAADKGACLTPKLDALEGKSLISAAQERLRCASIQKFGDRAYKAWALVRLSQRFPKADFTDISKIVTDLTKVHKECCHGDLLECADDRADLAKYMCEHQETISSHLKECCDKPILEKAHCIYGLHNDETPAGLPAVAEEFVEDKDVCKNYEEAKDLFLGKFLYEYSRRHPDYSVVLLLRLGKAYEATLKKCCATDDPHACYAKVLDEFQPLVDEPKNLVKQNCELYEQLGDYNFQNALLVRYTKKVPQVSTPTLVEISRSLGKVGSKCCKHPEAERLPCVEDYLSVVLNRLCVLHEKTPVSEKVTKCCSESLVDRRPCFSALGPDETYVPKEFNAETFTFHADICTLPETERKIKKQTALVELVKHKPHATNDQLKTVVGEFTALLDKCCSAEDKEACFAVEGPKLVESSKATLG
Assay: phage ELISA
Description: as §1

Does DSEVCYFPGICWSGT (phage clone, Library HBC) [HBC-H1] bind?
Result: no binding

Does DTCADLVRLGLECWA (phage clone, Library RD) [RD-R2] bind?
Result: no binding

Target: human albumin (human, UniProt P02768 25-609)
Assay: phage ELISA
Description: as §1

Does DTCADLVRLGLECWA (phage clone, Library RD) [RD-R2] bind?
Result: no binding

Target: T3, IgG-Fc (UniProt P01857-1 108-330 = IgG part, limits assumed)
T3 construct: domain: IgG-Fc; also called biotinylated-IgG-Fc; biotin-IgG-Fc
Assay: phage ELISA, M13/gIII display

How did the EC50 turn out when B1 was run?
The EC50 was 8 nM.

B2 was tested. Which EC50 did it give?
The EC50 was 9 nM.

B3 was tested. Which EC50 did it give?
Its EC50 is 44 nM.

B4 was tested. Which EC50 did it give?
Its EC50 is 66 nM.

With B5 as the binder, how does the EC50 read?
The EC50 was 130 nM.

How did the EC50 turn out when B6 was run?
Its EC50 is 82 nM.

With B7 as the binder, how does the EC50 read?
The EC50 was 156 nM.

For B8, which EC50 is on record?
The EC50 was 139 nM.

WVEDCSWHLGELVWCVGLDF (M13/gIII phage display; Designed Clones) [phage clone WVEDCSWHLGELVWCVGLDF] was tested. Which EC50 did it give?
Its EC50 is 31 nM.

How did the EC50 turn out when B9 was run?
Its EC50 is 44 nM.

B10 was tested. Which EC50 did it give?
The EC50 was 47 nM.

For B11, which EC50 is on record?
Its EC50 is 54 nM.

Which EC50 does the source give for B12 here?
The EC50 was 10 nM.

For B13, which EC50 is on record?
Its EC50 is 69 nM.

With B14 as the binder, how does the EC50 read?
Its EC50 is 63 nM.

For B15, which EC50 is on record?
The EC50 was 7 nM.

For B16, which EC50 is on record?
The EC50 was 70 nM.

For B17, which EC50 is on record?
The EC50 was 52 nM.

For B18, which EC50 is on record?
The EC50 was 210 nM.

How did the EC50 turn out when B19 was run?
The EC50 was 77 nM.

DLADCSWHLGELVWCVGLDE (M13/gIII phage display; Designed Clones) [phage clone DLADCSWHLGELVWCVGLDE] was tested. Which EC50 did it give?
Its EC50 is 28 nM.

How did the EC50 turn out when B20 was run?
Its EC50 is 100 nM.

Which EC50 does the source give for B21 here?
Its EC50 is 386 nM.

For B22, which EC50 is on record?
The EC50 was 23 nM.

B23 was tested. Which EC50 did it give?
Its EC50 is 14 nM.

For B24, which EC50 is on record?
Its EC50 is 15 nM.

Target: T3, IgG-Fc
Assay: phage ELISA, M13/gIII display, ALA scan

How did the EC50 turn out when B25 was run?
Its EC50 is 20 nM.

How did the EC50 turn out when B26 was run?
Its EC50 is 4 nM.

Which EC50 does the source give for B27 here?
The EC50 was 36 nM.

For B28, which EC50 is on record?
Its EC50 is 4670 nM.

For B29, which EC50 is on record?
Its EC50 is 11 nM.

Which EC50 does the source give for B30 here?
The EC50 was 101 nM.

B31 was tested. Which EC50 did it give?
Its EC50 is 3380 nM.

Which EC50 does the source give for B32 here?
Its EC50 is 10 nM.

Which EC50 does the source give for B33 here?
Its EC50 is 10 nM.

How did the EC50 turn out when B34 was run?
Its EC50 is 139 nM.

With B35 as the binder, how does the EC50 read?
Its EC50 is 55 nM.

Which EC50 does the source give for B36 here?
Its EC50 is 8 nM.

With B37 as the binder, how does the EC50 read?
Its EC50 is 56 nM.

B38 was tested. Which EC50 did it give?
The EC50 was 34 nM.

With B39 as the binder, how does the EC50 read?
Its EC50 is 12 nM.

How did the EC50 turn out when B40 was run?
Its EC50 is 1890 nM.

Which EC50 does the source give for B41 here?
The EC50 was 798 nM.

Target: T4, ovalbumin (UniProt P01012 2-386)
T4 sequence (looked up): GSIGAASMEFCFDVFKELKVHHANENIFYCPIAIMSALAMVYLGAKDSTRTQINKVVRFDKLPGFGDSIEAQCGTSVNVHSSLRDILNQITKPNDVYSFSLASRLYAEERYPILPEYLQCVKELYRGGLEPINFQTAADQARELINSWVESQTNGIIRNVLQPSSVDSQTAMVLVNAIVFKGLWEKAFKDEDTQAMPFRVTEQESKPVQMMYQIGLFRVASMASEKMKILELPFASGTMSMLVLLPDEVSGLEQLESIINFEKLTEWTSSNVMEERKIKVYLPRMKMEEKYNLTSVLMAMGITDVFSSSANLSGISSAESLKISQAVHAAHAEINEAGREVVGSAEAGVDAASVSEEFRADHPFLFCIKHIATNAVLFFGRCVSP
Assay: phage ELISA, photograph of the plate

Does B42 bind?
Result: no binding

Does DSEVCYFPGICWSGT (phage clone, Library HBC) [HBC-H1] bind?
Result: no binding

Does HSQMEDICLPRWGCLWGDEL (not fully specified (bridges); cysteine pairing not given here, phage clone, Library RB) [RB-B8] bind?
Result: no binding

Does QRHPEDICLPRWGCLWGDDD (not fully specified (bridges); cysteine pairing not given here, phage clone, Library RB) [RB-H1] bind?
Result: no binding

Does DTCADLVRLGLECWA (phage clone, Library RD) [RD-R2] bind?
Result: no binding

Target: T1, rat albumin
Assay: SA08b binding assay: competition with biotinylated SA08b for immobilized albumin
Description: (§2) Plates were blocked using Blocker Casein (Pierce Chemical, Rockford, Ill.) for 1 hr, at 25° C. […] The amount of HRP bound was measured using ABTS/H₂O₂ substrate and monitoring the change at 405 nm.

Which IC50 does the source give for B43 here?
The IC50 was 161 nM.

How did the IC50 turn out when B44 was run?
Its IC50 is 787 nM.

Target: T2, rabbit albumin
Assay: as above
Description: as §2

B43 was tested. Which IC50 did it give?
The IC50 was 804 nM.

How did the IC50 turn out when B44 was run?
Its IC50 is 8540 nM.

Target: mouse albumin (mouse, UniProt P07724 25-608)
Sequence (P07724 25-608 limits assumed): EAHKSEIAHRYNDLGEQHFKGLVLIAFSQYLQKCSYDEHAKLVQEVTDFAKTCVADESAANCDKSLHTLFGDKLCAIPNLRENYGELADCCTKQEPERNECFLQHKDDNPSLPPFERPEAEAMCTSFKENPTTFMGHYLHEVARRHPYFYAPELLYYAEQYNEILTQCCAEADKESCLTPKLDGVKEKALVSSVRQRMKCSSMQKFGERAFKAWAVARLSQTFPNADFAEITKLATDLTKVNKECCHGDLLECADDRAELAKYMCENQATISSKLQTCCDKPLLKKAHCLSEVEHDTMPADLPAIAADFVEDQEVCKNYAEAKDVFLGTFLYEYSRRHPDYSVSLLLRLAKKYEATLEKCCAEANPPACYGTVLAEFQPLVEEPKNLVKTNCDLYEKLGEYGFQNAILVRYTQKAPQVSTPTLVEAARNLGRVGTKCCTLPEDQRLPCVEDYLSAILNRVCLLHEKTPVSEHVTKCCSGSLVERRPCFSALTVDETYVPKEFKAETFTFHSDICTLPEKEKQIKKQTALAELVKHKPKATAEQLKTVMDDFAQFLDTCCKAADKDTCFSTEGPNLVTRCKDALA
Assay: as above
Description: as §2

How did the IC50 turn out when B43 was run?
Its IC50 is 6 nM.

With B44 as the binder, how does the IC50 read?
The IC50 was 40 nM.
